Data from article PMC8125063.

Columns and labels:
[1] = target: human Fbp2 L190G mutein (human); experiment: native gel or EMSA; Native 9% PAGE; 200 mM Glycine-NaOH pH 9.0, 1 mM MgCl2, with or without 100 µM CoCl2 and/or 10 µM AMP in gel and running buffer; 3 h at 254 V
[2] = target: human Fbp2 L190G mutein (human); experiment: SEC; HiLoad 16/600 Superdex 200 pg; 50 mM HEPES-NaOH pH 7.5, 150 mM KCl, 1 mM MgCl2, with or without 100 µM CoCl2 and/or 10 µM AMP; 0.5 mg protein loaded, 1 mL/min

stoichiometry N [1]: 2
stoichiometry N [2]: 2
Substance: human Fbp2 L190G mutein (enzyme)
